We go through nine molecules from US20230065562A1, “DUAL CONTROLS FOR THERAPEUTIC CELL ACTIVATION OR ELIMINATION” (Bellicum Pharmaceuticals, Inc., priority 2015, published 2023).

First the molecules themselves.
B1: D330A-S144D: modified iCasp9 double mutant (protein)
chain: VDGFGDVGALEDLRGNADLAYILSMEPCGHCLIINNVNFCRESGLRTRTGSNIDCEKLRRRFSSLHFMVEVKGDLTAKKMVLALLELARQDHGALDCCVVVILSHGCQASHLQFPGAVYGTDGCPVSVEKIVNIFNGTSCPSLGGKPKLFFIQACGGEQKDHGFEVASTSPEDESPGSNPEPDATPFQEGLRTFDQLAAISSLPTPSDIFVSYSTFPGFVSWRDPKSGSWYVETLDDIFEQWAHSEDLQSLLLRVANAVSVKGIYKQMPGCFNFLRKKLFFKTSASRA
B2: N405Q-S144A: modified iCasp9 double mutant (protein)
chain: VDGFGDVGALEALRGNADLAYILSMEPCGHCLIINNVNFCRESGLRTRTGSNIDCEKLRRRFSSLHFMVEVKGDLTAKKMVLALLELARQDHGALDCCVVVILSHGCQASHLQFPGAVYGTDGCPVSVEKIVNIFNGTSCPSLGGKPKLFFIQACGGEQKDHGFEVASTSPEDESPGSNPEPDATPFQEGLRTFDQLDAISSLPTPSDIFVSYSTFPGFVSWRDPKSGSWYVETLDDIFEQWAHSEDLQSLLLRVANAVSVKGIYKQMPGCFQFLRKKLFFKTSASRA
B3: D330A-S196A: modified iCasp9 double mutant (protein)
chain: VDGFGDVGALESLRGNADLAYILSMEPCGHCLIINNVNFCRESGLRTRTGSNIDCEKLRRRFSALHFMVEVKGDLTAKKMVLALLELARQDHGALDCCVVVILSHGCQASHLQFPGAVYGTDGCPVSVEKIVNIFNGTSCPSLGGKPKLFFIQACGGEQKDHGFEVASTSPEDESPGSNPEPDATPFQEGLRTFDQLAAISSLPTPSDIFVSYSTFPGFVSWRDPKSGSWYVETLDDIFEQWAHSEDLQSLLLRVANAVSVKGIYKQMPGCFNFLRKKLFFKTSASRA
B4: D330A-S183A: modified iCasp9 double mutant (protein, UniProt P55211 1-416, looked up, variant D330A S183A)
chain: MDEADRRLLRRCRLRLVEELQVDQLWDALLSRELFRPHMIEDIQRAGSGSRRDQARQLIIDLETRGSQALPLFISCLEDTGQDMLASFLRTNRQAAKLSKPTLENLTPVVLRPEIRKPEVLRPETPRPVDIGSGGFGDVGALESLRGNADLAYILSMEPCGHCLIINNVNFCRESGLRTRTGANIDCEKLRRRFSSLHFMVEVKGDLTAKKMVLALLELAQQDHGALDCCVVVILSHGCQASHLQFPGAVYGTDGCPVSVEKIVNIFNGTSCPSLGGKPKLFFIQACGGEQKDHGFEVASTSPEDESPGSNPEPDATPFQEGLRTFDQLAAISSLPTPSDIFVSYSTFPGFVSWRDPKSGSWYVETLDDIFEQWAHSEDLQSLLLRVANAVSVKGIYKQMPGCFNFLRKKLFFKTS
modifications: FKBP12-F36V fusion (iCasp9), CARD deleted
notes: modified iCasp9 double mutant
B5: N405Qco: codon-optimized version of N405Q modified Caspase-9 (protein, UniProt P55211 1-416, looked up, variant N405Q)
chain: MDEADRRLLRRCRLRLVEELQVDQLWDALLSRELFRPHMIEDIQRAGSGSRRDQARQLIIDLETRGSQALPLFISCLEDTGQDMLASFLRTNRQAAKLSKPTLENLTPVVLRPEIRKPEVLRPETPRPVDIGSGGFGDVGALESLRGNADLAYILSMEPCGHCLIINNVNFCRESGLRTRTGSNIDCEKLRRRFSSLHFMVEVKGDLTAKKMVLALLELAQQDHGALDCCVVVILSHGCQASHLQFPGAVYGTDGCPVSVEKIVNIFNGTSCPSLGGKPKLFFIQACGGEQKDHGFEVASTSPEDESPGSNPEPDATPFQEGLRTFDQLDAISSLPTPSDIFVSYSTFPGFVSWRDPKSGSWYVETLDDIFEQWAHSEDLQSLLLRVANAVSVKGIYKQMPGCFQFLRKKLFFKTS
modifications: FKBP12-F36V fusion (iCasp9), codon-optimized
B6: S307A: modified iCasp9, S307A (protein, UniProt P55211 1-416, looked up, variant S307A)
chain: MDEADRRLLRRCRLRLVEELQVDQLWDALLSRELFRPHMIEDIQRAGSGSRRDQARQLIIDLETRGSQALPLFISCLEDTGQDMLASFLRTNRQAAKLSKPTLENLTPVVLRPEIRKPEVLRPETPRPVDIGSGGFGDVGALESLRGNADLAYILSMEPCGHCLIINNVNFCRESGLRTRTGSNIDCEKLRRRFSSLHFMVEVKGDLTAKKMVLALLELAQQDHGALDCCVVVILSHGCQASHLQFPGAVYGTDGCPVSVEKIVNIFNGTSCPSLGGKPKLFFIQACGGEQKDHGFEVASTSPEDEAPGSNPEPDATPFQEGLRTFDQLDAISSLPTPSDIFVSYSTFPGFVSWRDPKSGSWYVETLDDIFEQWAHSEDLQSLLLRVANAVSVKGIYKQMPGCFNFLRKKLFFKTS
modifications: FKBP12-F36V fusion (iCasp9), CARD deleted
B7: N405Q-S144D: modified iCasp9 double mutant (protein, UniProt P55211 1-416, looked up, variant N405Q S144D)
chain: MDEADRRLLRRCRLRLVEELQVDQLWDALLSRELFRPHMIEDIQRAGSGSRRDQARQLIIDLETRGSQALPLFISCLEDTGQDMLASFLRTNRQAAKLSKPTLENLTPVVLRPEIRKPEVLRPETPRPVDIGSGGFGDVGALEDLRGNADLAYILSMEPCGHCLIINNVNFCRESGLRTRTGSNIDCEKLRRRFSSLHFMVEVKGDLTAKKMVLALLELAQQDHGALDCCVVVILSHGCQASHLQFPGAVYGTDGCPVSVEKIVNIFNGTSCPSLGGKPKLFFIQACGGEQKDHGFEVASTSPEDESPGSNPEPDATPFQEGLRTFDQLDAISSLPTPSDIFVSYSTFPGFVSWRDPKSGSWYVETLDDIFEQWAHSEDLQSLLLRVANAVSVKGIYKQMPGCFQFLRKKLFFKTS
modifications: FKBP12-F36V fusion (iCasp9), CARD deleted
notes: modified iCasp9 double mutant
B8: Y153A: modified iCasp9, Y153A (protein, UniProt P55211 1-416, looked up, variant Y153A)
chain: MDEADRRLLRRCRLRLVEELQVDQLWDALLSRELFRPHMIEDIQRAGSGSRRDQARQLIIDLETRGSQALPLFISCLEDTGQDMLASFLRTNRQAAKLSKPTLENLTPVVLRPEIRKPEVLRPETPRPVDIGSGGFGDVGALESLRGNADLAAILSMEPCGHCLIINNVNFCRESGLRTRTGSNIDCEKLRRRFSSLHFMVEVKGDLTAKKMVLALLELAQQDHGALDCCVVVILSHGCQASHLQFPGAVYGTDGCPVSVEKIVNIFNGTSCPSLGGKPKLFFIQACGGEQKDHGFEVASTSPEDESPGSNPEPDATPFQEGLRTFDQLDAISSLPTPSDIFVSYSTFPGFVSWRDPKSGSWYVETLDDIFEQWAHSEDLQSLLLRVANAVSVKGIYKQMPGCFNFLRKKLFFKTS
modifications: FKBP12-F36V fusion (iCasp9), CARD deleted
B9: N405Q-S144Aco: codon-optimized double mutant, class predicted (protein, UniProt P55211 1-416, looked up, variant N405Q S144A)
chain: MDEADRRLLRRCRLRLVEELQVDQLWDALLSRELFRPHMIEDIQRAGSGSRRDQARQLIIDLETRGSQALPLFISCLEDTGQDMLASFLRTNRQAAKLSKPTLENLTPVVLRPEIRKPEVLRPETPRPVDIGSGGFGDVGALEALRGNADLAYILSMEPCGHCLIINNVNFCRESGLRTRTGSNIDCEKLRRRFSSLHFMVEVKGDLTAKKMVLALLELAQQDHGALDCCVVVILSHGCQASHLQFPGAVYGTDGCPVSVEKIVNIFNGTSCPSLGGKPKLFFIQACGGEQKDHGFEVASTSPEDESPGSNPEPDATPFQEGLRTFDQLDAISSLPTPSDIFVSYSTFPGFVSWRDPKSGSWYVETLDDIFEQWAHSEDLQSLLLRVANAVSVKGIYKQMPGCFQFLRKKLFFKTS
modifications: FKBP12-F36V fusion (iCasp9), codon-optimized
notes: codon-optimized double mutant, class predicted

For the first experiment, the system named is HEK293T/16 cells. Description: Secreted alkaline phosphatase (SEAP)-based surrogate killing assay of iCasp9 mutants. Type of experiment: cell-based, human. The note with it: SEAP assay without AP1903.
In the case of B1, the “Basal Activity (relative to wild type/unmodified Caspase-9)” value was “Decreased”. For B2, the “Basal Activity (relative to wild type/unmodified Caspase-9)” value is listed as “Decreased”. For B3, the “Basal Activity (relative to wild type/unmodified Caspase-9)” value is given as “Decreased”. On the same count and under the same terms, for B4 the value was “Decreased”. For B5, the “Basal Activity (relative to wild type/unmodified Caspase-9)” value is on record as “Decreased”. Same read-out and setting: the result for B6 reads “Decreased”; that for B7, “Decreased”; that for B8, “Decreased”.

Staying with this experiment, now noted: marked '*, predicated'.
For B9, the “Basal Activity (relative to wild type), predicted mutants (*)” value is “Decreased”.
